The record followed here is patent US20250257128A1.

Assay [1] deals with human CD47 (human) (UniProt Q08722). Kind of assay: flow cytometry on human red blood cells, antibody at 150 µg/mL (negative control). A general note: Flow cytometry measures light scatter and fluorescence of single cells or particles in a stream.
For assay [2] the target is unchanged. The experiment in a line: flow cytometry on human red blood cells, antibody at 15 µg/mL (negative control).

Chain of human CD47 (human) (Q08722 19-323): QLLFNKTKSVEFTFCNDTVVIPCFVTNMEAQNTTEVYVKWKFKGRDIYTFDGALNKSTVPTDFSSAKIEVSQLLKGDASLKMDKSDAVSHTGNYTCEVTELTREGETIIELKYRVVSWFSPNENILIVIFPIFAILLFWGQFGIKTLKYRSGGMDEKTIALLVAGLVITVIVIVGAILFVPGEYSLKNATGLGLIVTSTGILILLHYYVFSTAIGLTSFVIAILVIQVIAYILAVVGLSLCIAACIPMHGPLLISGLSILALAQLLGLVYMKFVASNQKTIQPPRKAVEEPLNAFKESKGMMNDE

Consider “Human IgG1 isotype negative control (antibody)”, for which the MFI with human CD47 (human) [1] amounted to 901 MFI; with human CD47 (human) [2], 303 MFI.
